Data from US20220235103A1 (Molecular Partners, published 2022).

What was measured:
Assay in all cases: cell-based or functional assay
[1] = target: T1, SARS-CoV-2 spike protein, wild type (Wuhan) (SARS-CoV-2, UniProt P0DTC2 14-1273)
[2] = target: T2, SARS-CoV-2 spike protein D614G (SARS-CoV-2, UniProt P0DTC2 14-1273)
[3] = target: T3, SARS-CoV-2 spike protein G476S (SARS-CoV-2, UniProt P0DTC2 14-1273)
[4] = target: T4, SARS-CoV-2 spike protein V483A (SARS-CoV-2, UniProt P0DTC2 14-1273)
[5] = target: SARS-CoV-2 spike protein D614G x Q675H (SARS-CoV-2, UniProt P0DTC2 14-1273)
[6] = target: T1, SARS-CoV-2 spike protein, wild type …; remark: listed apart in the source
[7] = target: SARS-CoV-2 spike protein S477N (SARS-CoV-2, UniProt P0DTC2 14-1273)
[8] = target: SARS-CoV-2 spike protein variant B.1.351 (SARS-CoV-2, UniProt P0DTC2 14-1273)
[9] = target: SARS-CoV-2 spike protein P479S (SARS-CoV-2, UniProt P0DTC2 14-1273)
[10] = target: SARS-CoV-2 spike protein G446V (SARS-CoV-2, UniProt P0DTC2 14-1273)
[11] = target: T2, SARS-CoV-2 spike protein D614G; remark: listed apart in the source
[12] = target: SARS-CoV-2 spike protein F490S (SARS-CoV-2, UniProt P0DTC2 14-1273)
[13] = target: SARS-CoV-2 spike protein N501Y (SARS-CoV-2, UniProt P0DTC2 14-1273)
[14] = target: T3, SARS-CoV-2 spike protein G476S; remark: listed apart in the source
[15] = target: SARS-CoV-2 spike protein F486V (SARS-CoV-2, UniProt P0DTC2 14-1273)
[16] = target: SARS-CoV-2 spike protein Y453F (SARS-CoV-2, UniProt P0DTC2 14-1273)
[17] = target: SARS-CoV-2 spike protein N439K (SARS-CoV-2, UniProt P0DTC2 14-1273)
[18] = target: SARS-CoV-2 spike protein A222V (SARS-CoV-2, UniProt P0DTC2 14-1273)
[19] = target: SARS-CoV-2 spike protein E484K (SARS-CoV-2, UniProt P0DTC2 14-1273)
[20] = target: SARS-CoV-2 spike protein T478I (SARS-CoV-2, UniProt P0DTC2 14-1273)
[21] = target: SARS-CoV-2 spike protein Q493K (SARS-CoV-2, UniProt P0DTC2 14-1273)
[22] = target: SARS-CoV-2 spike protein K417E (SARS-CoV-2, UniProt P0DTC2 14-1273)
[23] = target: T4, SARS-CoV-2 spike protein V483A; remark: listed apart in the source
[24] = target: spike protein of live SARS-CoV-2 (2019-nCoV/IDF0372/2020) (SARS-CoV-2, UniProt P0DTC2 14-1273)
[25] = target: T1, SARS-CoV-2 spike protein, wild type …; remark: listed apart in the source

B1: ALE049 (designed binder)
chain: MRGSHHHHHHGSDLGKKLLEAARAGQDDEVRELLKAGADVNAKDYFSHTPLHLAARNGHLKIVEVLLKAGADVNAKDFAGKTPLHLAANEGHLEIVEVLLKAGADVNAQDIFGKTPADIAADAGHEDIAEVLQKAAGSPTPTPTTPTPTPTTPTPTPTGSDLGKKLLEAARAGQDDEVRELLKAGADVNAKDYFSHTPLHLAARNGHLKIVEVLLKAGADVNAKDFAGKTPLHLAANEGHLEIVEVLLKAGADVNAQDIFGKTPADIAADAGHEDIAEVLQKAAGSPTPTPTTPTPTPTTPTPTPTGSDLGKKLLQAARAGQLDEVRELLKAGADVNAKDREGITPLHLAAQHGHLEIVEVLLKAGADVNAKDVWGRTPLHLAAWQGHLEIVEVLLKAGADVNAKDLAGATPLHVAALYGHLEIVEVLLKAGADVNAQDKSGKTPADLAARAGHQDIAEVLQKAAGSPTPTPTTPTPTPTTPTPTPTGSDLGKKLLQAARAGQLDEVRELLKAGADVNAKDREGKTPLHVAAQEGHLEIVEVLLKAGADVNAKDVWGRTPLHLAAWIGHLEIVEVLLKAGADVNAKDVSGATPLHAAALHGHLEIVEVLLNAGADVNAQDKSGKTPADLAARAGHQDIAEVLQKAAGSPTPTPTTPTPTPTTPTPTPTGSDLGKKLLQAARAGQLDEVRELLKAGADVNAKDQEGITPLHVAAHQGHLEIVEVLLKAGADVNAKDVWGRTPLHLAAWRGHLEIVEVLLKAGADVNAKDHAGATPLHAAALSGHLEIVEVLLKAGADVNAQDKSGKTPADLAARAGHQDIAEVLQKAA
Potency of inhibition of SARS-CoV-2 spike protein variants (IC50) [1]: 16.5 pM | Potency of inhibition of SARS-CoV-2 spike protein variants (IC50) [2]: 11.8 pM | Potency of inhibition of SARS-CoV-2 spike protein variants (IC50) [3]: 27.1 pM | Potency of inhibition of SARS-CoV-2 spike protein variants (IC50) [4]: 27.5 pM | Potency of inhibition of SARS-CoV-2 spike protein variants (IC50) [5]: 12.1 pM | VSV Pseudotype Neutralization Assay IC50 [6]: 1 ng/mL | VSV Pseudotype Neutralization Assay IC50 [7]: 1.9 ng/mL | VSV Pseudotype Neutralization Assay IC50 [8]: 3 ng/mL | VSV Pseudotype Neutralization Assay IC50 [9]: 2.1 ng/mL | VSV Pseudotype Neutralization Assay IC50 [10]: 1.7 ng/mL | VSV Pseudotype Neutralization Assay IC50 [11]: 2.4 ng/mL | VSV Pseudotype Neutralization Assay IC50 [12]: 3.8 ng/mL | VSV Pseudotype Neutralization Assay IC50 [13]: 0.5 ng/mL | VSV Pseudotype Neutralization Assay IC50 [14]: 1.5 ng/mL | VSV Pseudotype Neutralization Assay IC50 [15]: > 100 ng/mL | VSV Pseudotype Neutralization Assay IC50 [16]: 3.2 ng/mL | VSV Pseudotype Neutralization Assay IC50 [17]: 1.3 ng/mL | VSV Pseudotype Neutralization Assay IC50 [18]: 2.2 ng/mL | VSV Pseudotype Neutralization Assay IC50 [19]: 2.7 ng/mL | VSV Pseudotype Neutralization Assay IC50 [20]: 2.7 ng/mL | VSV Pseudotype Neutralization Assay IC50 [21]: 7.9 ng/mL | VSV Pseudotype Neutralization Assay IC50 [22]: 0.5 ng/mL | VSV Pseudotype Neutralization Assay IC50 [23]: 2.3 ng/mL | IC50 LV (live virus cytopathic effect assay) [24]: 25 pM | IC50 (read off the curve), SARS-CoV-2 VSV pseudotype virus, no competitor [25]: ~100 pM

B2: ALE058 (designed binder)
chain: MRGSHHHHHHGSDLGKKLLEAARAGQDDEVRELLKAGADVNAKDYFSHTPLHLAARNGHLKIVEVLLKAGADVNAKDFAGKTPLHLAANEGHLEIVEVLLKAGADVNAQDIFGKTPADIAADAGHEDIAEVLQKAAGSPTPTPTTPTPTPTTPTPTPTGSDLGKKLLEAARAGQDDEVRELLKAGADVNAKDYFSHTPLHLAARNGHLKIVEVLLKAGADVNAKDFAGKTPLHLAANEGHLEIVEVLLKAGADVNAQDIFGKTPADIAADAGHEDIAEVLQKAAGSPTPTPTTPTPTPTTPTPTPTGSDLGKKLLQAARAGQLDEVRELLKAGADVNAKDQEGITPLHVAAHQGHLEIVEVLLKAGADVNAKDVWGRTPLHLAAWRGHLEIVEVLLKAGADVNAKDHAGATPLHAAALSGHLEIVEVLLKAGADVNAQDKSGKTPADLAARAGHQDIAEVLQKAAGSPTPTPTTPTPTPTTPTPTPTGSDLGHKLLLAAQAGQDDEVRILLAAGADVNAKDVFGQTPLHVAAVAGHLEIVEVLLKAGADVNAKDSIGYTPLHHAARVGHLEIVEVLLKAGADVNAQDWIGITPADLAAFEGHEDIAEVLQKAAGSPTPTPTTPTPTPTTPTPTPTGSDLGQKLLHAAQYGQDDEVRILLAAGADVNAKDKQGNTPLHIAAFHGHLEIVEVLLKAGADVNAKDQWGLTPLHLAAAWGHLEIVEVLLKAGADVNAQDNYGQTPADLAAESGHEDIAEVLQKAA
Potency of inhibition of SARS-CoV-2 spike protein variants (IC50) [1]: 5.48 pM | Potency of inhibition of SARS-CoV-2 spike protein variants (IC50) [2]: 4.64 pM | Potency of inhibition of SARS-CoV-2 spike protein variants (IC50) [3]: 14.5 pM | Potency of inhibition of SARS-CoV-2 spike protein variants (IC50) [4]: 32.4 pM | Potency of inhibition of SARS-CoV-2 spike protein variants (IC50) [5]: 22.4 pM | IC50 LV (live virus cytopathic effect assay) [24]: 100 pM | IC50 (read off the curve), SARS-CoV-2 VSV pseudotype virus, no competitor [25]: ~100 pM
